{
  "source": "patent US9988424",
  "about": "(DUKE UNIVERSITY, dated 2018)",
  "key": {"[1]": {"target": "MN gp120 (HIV-1)"}, "[2]": {"target": "92TH023 gp120 (HIV-1)"}, "[3]": {"target": "T1, AE.A244 gD+ gp120 (HIV-1)", "T1 construct": "domain: gp120; also called AE.A244 gp120gD+", "assay": "ELISA"}, "[4]": {"target": "T2, A.9004SS V1V2 Tags", "T2 Env construct": "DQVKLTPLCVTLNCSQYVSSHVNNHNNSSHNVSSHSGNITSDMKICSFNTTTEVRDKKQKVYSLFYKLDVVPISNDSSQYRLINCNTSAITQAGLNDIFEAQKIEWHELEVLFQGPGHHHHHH", "assay": "ELISA, OD405 at 10 ug/ml mAb"}, "[5]": {"target": "T3, B.HXB/BAL gp140CFI (HIV-1, UniProt P04578 33-680)", "T3 construct": "also called B.HxB/Ba gp140 CFI", "assay": "ELISA, OD405 at 10 ug/ml mAb"}, "[6]": {"target": "T4, B.63521_V1V2 Tags", "T4 Env construct": "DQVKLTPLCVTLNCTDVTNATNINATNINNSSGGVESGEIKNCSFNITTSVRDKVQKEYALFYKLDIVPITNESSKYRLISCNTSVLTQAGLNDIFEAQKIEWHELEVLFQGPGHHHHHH", "assay": "ELISA, OD405 at 10 ug/ml mAb"}, "[7]": {"target": "T5, B.Case A2 V1/V2 Tags", "T5 Env construct": "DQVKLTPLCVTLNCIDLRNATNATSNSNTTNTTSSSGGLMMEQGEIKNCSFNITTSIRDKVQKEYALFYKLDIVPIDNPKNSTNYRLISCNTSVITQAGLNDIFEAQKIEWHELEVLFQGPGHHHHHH", "assay": "ELISA, OD405 at 10 ug/ml mAb"}, "[8]": {"target": "B.63521 gp140C", "assay": "ELISA, OD405 at 10 ug/ml mAb"}, "[9]": {"target": "J08 C.ZM109.V1V2 (HIV-1)", "assay": "SPR"}, "[10]": {"target": "1C.FD6-ZM109", "assay": "SPR"}, "[11]": {"target": "T1, AE.A244 gD+ gp120", "assay": "ELISA", "remark": "listed apart in the source"}, "[12]": {"target": "T6, A.9004SS V1/V2 tags", "T6 V1V2 tags construct": "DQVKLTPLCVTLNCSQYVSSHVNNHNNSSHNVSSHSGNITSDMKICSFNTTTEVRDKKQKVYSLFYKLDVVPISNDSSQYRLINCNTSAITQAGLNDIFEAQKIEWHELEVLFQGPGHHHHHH", "assay": "ELISA, OD405 at 10 ug/ml"}, "[13]": {"target": "B.Case A2 V1/V2 tags", "assay": "ELISA, OD405 at 10 ug/ml"}, "[14]": {"target": "B.63521_V1/V2 tags", "assay": "ELISA, OD405 at 10 ug/ml"}, "[15]": {"target": "D.9009SA V1/V2 tags", "assay": "ELISA, OD405 at 10 ug/ml"}, "[16]": {"target": "A.Q23 V1V2 tags (HIV-1)", "assay": "ELISA"}, "[17]": {"target": "T7, J08 B.HXB2/BALV1V2 (HIV-1)", "T7 construct": "also called J08 B.HXB/BAL V1V2", "T7 chain": "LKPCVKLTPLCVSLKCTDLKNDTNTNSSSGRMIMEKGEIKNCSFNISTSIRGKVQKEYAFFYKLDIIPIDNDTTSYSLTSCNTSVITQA", "assay": "ELISA"}, "[18]": {"target": "J08 C.ZM109.V1V2 (HIV-1)", "assay": "ELISA"}, "[19]": {"target": "J08 A.92RW020V1V2 (HIV-1)", "assay": "ELISA"}, "[20]": {"target": "MN gp120 (HIV-1)", "remark": "listed apart in the source"}, "[21]": {"target": "92TH023 gp120 (HIV-1)", "remark": "listed apart in the source"}, "[22]": {"target": "A.Q23 V1V2 tags (HIV-1)", "assay": "ELISA", "remark": "listed apart in the source"}, "[23]": {"target": "T8, AE.A244 V1/V2 Tags N156QN160Q (HIV-1)", "T8 chain": "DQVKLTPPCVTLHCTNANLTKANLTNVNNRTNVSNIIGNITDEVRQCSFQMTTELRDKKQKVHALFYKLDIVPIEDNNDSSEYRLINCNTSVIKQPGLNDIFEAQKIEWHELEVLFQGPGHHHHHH", "assay": "ELISA"}, "[24]": {"target": "B. 681-7 gp140C", "assay": "ELISA, OD405"}, "[25]": {"target": "T9, D.9009SA V1V2 Tags", "T9 Env construct": "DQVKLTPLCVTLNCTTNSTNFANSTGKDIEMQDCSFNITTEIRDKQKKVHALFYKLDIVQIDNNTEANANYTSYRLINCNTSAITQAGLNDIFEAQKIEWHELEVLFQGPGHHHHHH", "assay": "ELISA, OD405"}},
  "note": "Where two headings read alike, the source gives them in different places.",
  "data": [
    {"binder": "PG9 (antibody, V domains shown, also called mAb PG9; bnAb PG9) VH: QRLVESGGGVVQPGSSLRLSCAASGFDFSRQGMHWVRQAPGQGLEWVAFIKYDGSEKYHADSVWGRLSISRDNSKDTLYLQMNSLRVEDTATYFCVREAGGPDYRNGYNYYDFYDGYYNYHYMDVWGKGTTVTVSS VL: QSALTQPASVSGSPGQSITISCNGTSNDVGGYESVSWYQQHPGKAPKVVIYDVSKRPSGVSNRFSGSKSGNTASLTISGLQAEDEGDYYCKSLTSTRRRVFGTGTKLTVL", "values": [
      {"measurement": "IC50", "setting": "[1]", "value": "10 to 100", "unit": "nM"},
      {"measurement": "IC50", "setting": "[2]", "value": "100 to 1000", "unit": "nM"},
      {"measurement": "EC50", "setting": "[3]", "value": 0.7, "unit": "nM"},
      {"measurement": "binding result", "setting": "[4]", "value": "binds"},
      {"measurement": "binding result", "setting": "[5]", "value": "binds"},
      {"measurement": "binding result", "setting": "[6]", "value": "binds"},
      {"measurement": "binding result", "setting": "[7]", "value": "binds"},
      {"measurement": "binding result", "setting": "[8]", "value": "binds"},
      {"measurement": "Kd", "setting": "[9]", "value": 318, "unit": "nM"},
      {"measurement": "Kd", "setting": "[10]", "value": 4820, "unit": "nM"},
      {"measurement": "EC50", "setting": "[11]", "value": 0.7, "unit": "nM"},
      {"measurement": "binding result", "setting": "[12]", "value": "binds"},
      {"measurement": "binding result", "setting": "[13]", "value": "binds"},
      {"measurement": "binding result", "setting": "[14]", "value": "binds"},
      {"measurement": "binding result", "setting": "[15]", "value": "no binding (tested: 10 ug/ml)"},
      {"measurement": "EC50", "setting": "[16]", "value": 14.9, "unit": "nM"},
      {"measurement": "EC50", "setting": "[17]", "value": 149, "unit": "nM"},
      {"measurement": "EC50", "setting": "[18]", "value": 0.23, "unit": "nM"},
      {"measurement": "EC50", "setting": "[19]", "value": 64, "unit": "nM"},
      {"measurement": "IC50", "setting": "[20]", "value": "10 to 100", "unit": "nM"},
      {"measurement": "IC50", "setting": "[21]", "value": "100 to 1000", "unit": "nM"},
      {"measurement": "EC50", "setting": "[22]", "value": 14.9, "unit": "nM"},
      {"measurement": "binding result", "setting": "[23]", "value": "no binding (tested: 100 ug/ml)"},
      {"measurement": "binding result", "setting": "[24]", "value": "no binding (tested: 10 ug/ml)"},
      {"measurement": "binding result", "setting": "[25]", "value": "no binding (tested: 10 ug/ml)"}
    ]}
  ]
}
